± gives the standard deviation.

The data set can be described thus: protein stability index of a GFP-peptide fusion (GPS, HEK-293T) (PSI 1-6); higher = more stable.
Setting [1] is: treatment: DMSO, c terminus: a fixed tail appended.
[2] abbreviates: treatment: MLN4924 1 uM, 8 h, c terminus: a fixed tail appended.
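Note: 24-mer peptide tiles fused after GFP, lentivirally expressed, FACS-sorted into six equal bins by GFP/DsRed ratio, decoded by Illumina sequencing, PSI is the read-weighted mean bin number.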

For MHSFPPLLLLLFWGVVSHSFPATL [MMP1], the protein stability index is, setting by setting: under setting [1], 3.14 ± 0.31; under setting [2], 3.12 ± 0.25.

Regarding MKRDVQEGQARCLAHLGRHMEALE [C8orf76], the protein stability index reads like this: under setting [1], 3.66 ± 0.22; under setting [2], 3.97 ± 0.35.

With MLNMWKVRELVDKATNVVMNYSEI [CLINT1], the protein stability index under setting [1] stood at 2.4 ± 0.17 and the protein stability index under setting [2] came out at 2.23 ± 0.22.

In the case of MLRTGLGVIRMWADEGSRNSRFQM [NETO1], the protein stability index reads like this: under setting [1], 2.5 ± 0.11; under setting [2], 2.39 ± 0.4.

As for MMDLRNTPAKSLDKFIEDYLLPDT [OAS1], the protein stability index is 3.04 ± 0.16 under setting [1] and 3.15 ± 0.28 under setting [2].

Regarding MNYSEIESKVREATNDDPWGPSGQ [CLINT1], the protein stability index reads like this: under setting [1], 4.84 ± 0.22; under setting [2], 4.96 ± 0.14.

MPNGCSDDVLPWRRTAENKLDTKY [DCTD] had a protein stability index under setting [1] of 4 ± 0.1 and a protein stability index under setting [2] of 3.87 ± 0.29.

MSAPGSPDQAYDFLLKFLLVGDRD [RAB40A]: the protein stability index by setting is: under setting [1], 2.27 ± 0.23; under setting [2], 2.42 ± 0.38.

Take MSRMQSKEYPVVPRSTVRQKVASN [TBX5]: the protein stability index by setting is: under setting [1], 4.25 ± 0.24; under setting [2], 4.15 ± 0.087.

Sequence MSTEEQYRIRQVNIYYYLEDDSMS [EFHC1] registered a protein stability index under setting [1] of 2.19 ± 0.26 and a protein stability index under setting [2] of 2.13 ± 0.3.

MSVLWLEHDRETRMQYAPDLMKRL [KLHL14]: the protein stability index runs as follows: under setting [1], 2.35 ± 0.11; under setting [2], 2.45 ± 0.15.

In the case of MSWAKLARQATNLKVNFFFERIMK [FBXO39], the protein stability index came to 2.34 ± 0.19 under setting [1] and 2.22 ± 0.35 under setting [2].

Take MTAPAGPRGSETERLLTPNPGYGT [MCOLN1]: the protein stability index came to 4.23 ± 0.22 under setting [1] and 4.2 ± 0.42 under setting [2].

For MVEDDSRKEMTAACTPRRRIINLT [MLH1], the protein stability index by setting is: under setting [1], 3.95 ± 0.059; under setting [2], 3.93 ± 0.29.

Take NAIRVHHALATRASDYSKKSNVLK [PSD2]: the protein stability index turned out to be 3.46 ± 0.31 under setting [1] and 3.5 ± 0.12 under setting [2].

Take NCKLATRAKDFLPADIQAQFAISR [SNX8]: the protein stability index runs as follows: under setting [1], 2.45 ± 0.21; under setting [2], 2.73 ± 0.52.

For the sequence NDIPHSIPLEQGSSCNGPGQTTGH [FAN1], the protein stability index is, setting by setting: under setting [1], 5.24 ± 0.18; under setting [2], 5.23 ± 0.1.

NDLDRIAQPNYIPTQQDVLRTRVK [GNAI1] displayed a protein stability index under setting [1] of 4.81 ± 0.13 and a protein stability index under setting [2] of 4.92 ± 0.15.

Regarding NDMSPSNNVVPIHVPPTTENKPKV [RAB11A], the protein stability index amounted to 5.42 ± 0.12 under setting [1] and 5.33 ± 0.19 under setting [2].

As to NELQHDLDVVSDALAKVSRKPSI [TPH1], the protein stability index is 5.17 ± 0.39 (treatment: DMSO, c terminus: native) and 5.33 ± 0.11 (treatment: MLN4924 1 uM, 8 h, c terminus: native).

NGHTDVADVLLQAGADLEHESEGG [ANKRD17]: the protein stability index under setting [1] stood at 5.37 ± 0.17 and the protein stability index under setting [2] is 5.28 ± 0.048.

For NGRGELVESLKRFCASTRLPPTPL [AUP1], the protein stability index by setting is: under setting [1], 3.18 ± 0.38; under setting [2], 2.94 ± 0.5.

For the sequence NGRHKIPESQFPEFSTSLFSGSLE [SRPK2], the protein stability index was 3.66 ± 0.22 under setting [1] and 3.8 ± 0.19 under setting [2].

As to NHANGLTLVSRAHQLVMEGYNWCH [PPP2CA], the protein stability index by setting is: under setting [1], 2.6 ± 0.16; under setting [2], 2.49 ± 0.29.

In the case of NHCMLSPSSSGHLADSDTLSSAEE [C18orf25], the protein stability index runs as follows: under setting [1], 5.36 ± 0.19; under setting [2], 5.4 ± 0.098.

With NHGYAEPAAGRELPPDMTVVPGDH [KCNA3], the protein stability index reads like this: under setting [1], 5.21 ± 0.14; under setting [2], 5.24 ± 0.24.

Turning to NHVAVAARYAQQKHRIRRVLIVDW [HDAC6], the protein stability index is, setting by setting: under setting [1], 2.34 ± 0.72; under setting [2], 2.09 ± 0.27.

For the sequence NISGLRFETQLKTLCQFPETLLGD [KCNA3], the protein stability index is, setting by setting: under setting [1], 2.89 ± 0.26; under setting [2], 3.03 ± 0.23.

As to NKQAYDLAKALLKRTAQAIEPYIT [PDS5B], the protein stability index is 2.54 ± 0.46 under setting [1] and 2.63 ± 0.37 under setting [2].

Source of the values: the supplement of paper PMC10567573.
